What was measured:
[1] = biological target: EGF receptor (Homo sapiens) (UniProt P00533); conditions: cited from earlier work
[2] = biological target: Ik2-MBPHis fusion protein (Drosophila); experiment: SPR; ProteOn XPR36, GLC chip; Ik2-MBPHis (1400 RU) and Sec13-MBP (5500 RU) amine-coupled; Spn-F injected at six concentrations 0.1625 to 5 μM; PBS pH 7.4, 0.005% Tween 20, 25°C; global fit to 1:1 Langmuir model

Chain of EGF (P01133 971-1023): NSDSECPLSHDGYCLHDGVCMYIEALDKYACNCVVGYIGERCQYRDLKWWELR

| Kd [2] | koff [2] | kon [2] | Molecule | Kd [1] |
| --- | --- | --- | --- | --- |
| – | – | – | EGF (from UniProt P01133) | 410 nM |
| 407 nM | 0.00169 s⁻¹ | 4150 M⁻¹ s⁻¹ | Spn-F, recombinant, MBP-His6 tag cleaved (natural protein) MEASAAKITPMASSMSASGSTNSPSSEKMNYALQVALQTIKERCIQLQRRVASMEEENQQLREASSRSEGAPRANEIGVTGDVLSLKAQVSELQRQKEQLEEHIGMVSNENRRLWSRLSQISKDQQLNALPSSTDSRAQQNQNLVRSKTFTQHSPNPHLRQKMLSDGIKDLSLEEIALDDFGASSEELGYPYNLQKVEETTSEPDANVDAKRCLDGLQELRREAMKQQQELRSVMTLLENRIALKPCPECAQKTIKKPEMADKSLETDDSLTSELKNYESQHNGHNGTPPSQRINIIQEKIKADAADAMEKTCPMCGKQYSSQVSFNAFREHVEMHFIDDALELESENSIERQFEFVSHAVGDF | – |

Source: article PMC2567969
